Molecular target: hnRNP A1 tandem RRMs (UP1-like) (UniProt P09651 1-196)
Assay: fluorescence anisotropy; 35 C; NMR buffer: sodium phosphate pH 6.5 (50 mM for tandem RRMs, 25 mM for single RRMs), 1 mM BME, 50 uM EDTA, no added salt stated; ITC 25 C, NMR 298 K (10% D2O), FA 35 C
Settings: protein: recombinant; tags: 2xHis6-lipoyl tag removed by TEV; label: 3' fluorescein

hnRNP A1 tandem RRMs (UP1-like), sequence (P09651 1-196): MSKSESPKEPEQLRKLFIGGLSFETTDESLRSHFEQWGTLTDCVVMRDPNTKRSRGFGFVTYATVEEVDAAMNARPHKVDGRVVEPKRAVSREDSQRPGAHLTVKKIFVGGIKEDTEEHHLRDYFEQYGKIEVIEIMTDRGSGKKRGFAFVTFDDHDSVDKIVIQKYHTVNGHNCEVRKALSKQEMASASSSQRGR

| Binder | Kd |
| --- | --- |
| CAGGGAUUUGGGGAC (ssRNA) [CFTR exon 9 ESS 15-mer ssRNA wt] | 99 nM |
| CAGGGAUUUCGCGUA (ssRNA) [CFTR exon 9 ESS 15-mer ssRNA mut4] | 117 nM |

Source: PMC12171016, “hnRNP A1 induces aberrant CFTR exon 9 splicing via a newly discovered ESS element”
